US20220056137A1 (GIGAGEN, published 2022)
Where two headings read alike, the source gives them in different places.

Tests used:
[1] = target: T1, PD-L1 expressed on CHO cells (human, UniProt Q9NZQ7 19-290); experiment: cell-based or functional assay
[2] = target: T2, human PD-L1 protein (soluble) (human, UniProt Q9NZQ7 19-239); experiment: SPR, mAb captured on anti-human IgG Fc, PD-L1 as analyte;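 for koff: array SPR with mAb supernatants captured at several densities, PD-L1 injected for 5 min then 15 min dissociation, non-regenerative kinetic series, double-referenced against interspot surface and blank injection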;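 for kon: array SPR with mAb supernatants captured at several densities, PD-L1 injected for 5 min then 15 min dissociation, non-regenerative kinetic series, double-referenced against interspot surface and blank injection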
T2 construct: also called PD-L1 (R&D Systems); His-tagged PD-L1 protein
T2 sequence (Q9NZQ7 19-239 limits assumed): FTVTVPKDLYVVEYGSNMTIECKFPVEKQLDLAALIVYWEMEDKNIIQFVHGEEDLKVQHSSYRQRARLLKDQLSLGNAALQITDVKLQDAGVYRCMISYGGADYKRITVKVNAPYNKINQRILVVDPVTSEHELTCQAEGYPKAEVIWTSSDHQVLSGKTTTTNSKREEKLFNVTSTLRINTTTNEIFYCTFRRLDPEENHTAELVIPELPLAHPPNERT
Method: (§1) The surface was then deactivated with 1 M ethanolamine pH 8.5 (Carterra Inc.). Running buffer used for the lawn immobilization was HBS-EPC (10 mM HEPES, 150 mM NaCl, 3 mM EDTA, 0.05% Tween 20, pH 7.4; Teknova).
(§2) The sensor chip was then transferred to a continuous flow microspotter (CFM; Carterra Inc.) for array capturing. The mAb supernatants were diluted 50-fold (3-10 mg/mL final concentration) into HBS-EPC with 1 mg/mL BSA. The samples were each captured twice with 15-minute and 4-minute capture steps on the first and second prints, respectively, to create multiple densities, using a 65 mL/min flow rate. The running buffer in the CFM was also HBS-EPC.
(§3) Next, the sensor chip was loaded onto an SPR reader (MX-96 system; Ibis Technologies) for the kinetic analysis. […] PD-L1 injections were 5 minutes with a 15-minute dissociation at 8 mL/second in a non-regenerative kinetic series. An injection of the goat anti-Human IgG Fc capture antibody at 75 mg/mL was injected at the end of the series to verify the capture level of each mAb. Binding data was double referenced by subtracting an interspot surface and a blank injection and analyzed for ka (on-rate), kd (off-rate), and KD (affinity) using the Kinetic Interaction Tool software (Carterra Inc.).

[3] = target: T2, human PD-L1 protein (soluble); experiment: as above; remark: listed apart in the source
Method: as §1, §2, §3

cyno PD-L1 = target: T3, cyno PD-L1 (cyno); experiment: BLI (Octet), antibody on AHC biosensor, cyno PD-L1 as analyte
T3 construct: Soluble analyte in BLI
Method: For BLI, antibodies were loaded onto an Anti-Human IgG Fc (AHC) biosensor using the Octet Red96 system (ForteBio). Loaded biosensors were dipped into antigen dilutions beginning at 300 nM, with 6 serial dilutions at 1:3. Kinetic analysis was performed using a 1:1 binding model and global fitting.

rhPD-L1-Fc = target: T4, rhPD-L1-Fc (human, UniProt Q9NZQ7 19-239, limits assumed); experiment: competition ELISA: plate-bound rhPD-L1-Fc, antibody titrated, competitor rhCD80-His detected
T4 construct: Recombinant human PD-L1-Fc coated on ELISA plates; not shown: Fc part
T4 sequence (Q9NZQ7 19-239 limits assumed): as above

[4] = target: T1, PD-L1 expressed on CHO cells; experiment: flow cytometry on PD-L1 expressing Flp-In CHO cells
Method: For cell surface binding studies, PD-L1 expressing Flp-In CHO (Thermo Fisher Scientific) cells were generated and mixed at a 50:50 ratio. One million cells were stained with 1 μg of the disclosed anti-PD-L1 recombinant antibodies in 200 μl of MACS Buffer (DPBS with 0.5% bovine serum albumin and 2 mM EDTA) for 30 minutes at 4 C. Cells were then co-stained with anti-human irrelevant target-APC and anti-human IgG Fc-PE antibodies for 30 minutes at 4 C. An anti-human PD-L1 antibody was used as a control for these mixing experiments and cell viability was assessed with DAPI. Flow cytometry analysis was conducted on a BD Influx at the Stanford Shared FACS Facility and data was analyzed using FlowJo.

T1 sequence (Q9NZQ7 19-290 limits assumed): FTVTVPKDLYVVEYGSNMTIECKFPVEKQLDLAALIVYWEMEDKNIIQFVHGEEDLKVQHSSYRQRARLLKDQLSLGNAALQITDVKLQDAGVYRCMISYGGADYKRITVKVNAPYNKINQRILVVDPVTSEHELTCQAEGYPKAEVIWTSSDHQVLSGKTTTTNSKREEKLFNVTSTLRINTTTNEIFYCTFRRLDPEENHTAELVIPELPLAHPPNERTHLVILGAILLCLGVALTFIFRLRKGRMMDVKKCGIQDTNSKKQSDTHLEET

| Binder | Promega assay antagonist (EC50, ug/mL) [1] [µg/mL] | Kd [2] [nM] | Kd [3] [nM] | koff [3] [s⁻¹] | kon [3] [M⁻¹ s⁻¹] | Kd (cyno PD-L1) [nM] | EC50 (rhPD-L1-Fc) [µg/mL] | binding result [4] |
| --- | --- | --- | --- | --- | --- | --- | --- | --- |
| antibody A2 (antibody, V domains shown, Tested as full-length mAb made in CHO cells; also called L2H2) VH: EVQLVESGGGLVQPGGSLRLSCAASGFTFSRYDMSWVRQAPGKGLEWVSTISGSGGSTYYADSVKGRFTISRDNSKTTLYLQMISLRAEDTAVYYCAKAGFTMIVVAFDYWGQGTLVTVSS VL: DIQMTQSPSSLSASVGDRVTITCRASQGISNYLAWFQQKPGKAPKSLIYAASSLQSGVPSKFSGSGSGTDFTLTISSLQPEDFATYYCQQYNSYPYTFGQGTKLEIK | 0.042 | 3.5 | 3.45 | 0.0038 | 1.1e+06 | 5.2 | 0.87 | – |
| antibody A3 (antibody, V domains shown, Tested as full-length mAb made in CHO cells; also called L3H3) VL: AIQMTQSPSSLSASVGDRVTITCRASQDIRNDLGWYQQQPGKAPKLLIYAASSLQSGVPSRFSGSGSGTDFTLTISSLQPEDFATYYCLQDYNYPPTFGQGTKVEIK V domain: QVQLVESGGGVVQPGRSLRLSCAASGFTFSNYGMHWVRQAPGKGLEWVAVIWFDGNTKYYTDSVKGRFTISRDNSKNTLYLQMNSLRAEDTAVYYCARDTTMVPMDVWGQGTTATVSS | 0.12 | 5 | 5.14 | 0.0019 | 370000 | 8.3 | 0.99 | – |
| antibody A4 (antibody, V domains shown, Tested as full-length mAb made in CHO cells; also called L4H4) VH: QVQLVESGGGVVQPGRSLRLSCAASGFTFSNYGMHWVRQAPGKGLEWVAVIWFDGNTKYYTDSVKGRFTISRDNSKNTLYLQMNSLRAEDTAVYYCARDITMVPMDVWGQGTTVTVSS VL: AIQMTQSPSSLSASVGDRVTITCRASQDIRNDLGWYQQQPGKAPKLLIYAASSLQSGVPSRFSGSGSGTDFTLTISSLQPEDFATYYCLQDYNYPPTFGQGTKVEIK | 0.198 | 6.4 | 6.25 | 0.001 | 160000 | 11.3 | 1.25 | – |
| antibody A10 (antibody, V domains shown, Tested as full-length mAb made in CHO cells; also called L10H10) VH: QVQLVESGGGVVQPGRSLRLSCAASGFTFSSYGMHWVRQAPGKGLEWVAVIWYDGINKYYADSVKGRFTISRDNSKNTLYLQMNSLRAEDTAVYYCARDSTASPFDYWGQGTLVTVSS VL: EIVMTQSPATLSLSPGERATLSCRASQSVSSSYLSWYQQKPGQAPRLLIYGASTRATGIPARFSGSGSGTDFTLTISSLQPEDFAVYYCQQDYNLPHTFGQGTKLEIK | 0.27 | 42 | 40.9 | 0.018 | 440000 | 27.4 | 2.24 | – |
| antibody A6 (antibody, V domains shown, Tested as full-length mAb made in CHO cells; also called L6H6) VH: QVQLVESGGGVVQPGRSLRLSCAASGFTFSSYGMHWVRQAPGKGLEWVAVIWFDGSNKYYADSVKGRFTISRDNSKNTLYLQMNSLRAEDTAVYYCARDKTVSPFDIWGQGTMVTVSS VL: EIVMTQSPATLSLSPGERATLSCRASQSVSSSYLSWYQQKPGQAPRLLIYGASTRATGIPARFSGSGSGTDFTLTISSLQPEDFAVYYCQQDYNLFTFGPGTKVDIK | 0.111 | 16 | 15.8 | 0.0049 | 310000 | – | 2.62 | – |
| antibody A5 (antibody, V domains shown, Tested as full-length mAb made in CHO cells; also called L5H5) VH: QVQLVESGGGVVQPGRSLRLSCAASGFAFSSYGMHWVRQAPGKGLEWVALIWFDGNNKFYADSVKGRFTISRDNSKNTLYLQMNSLRAEDTAVYYCARDTTAASFDYWGQGTLVTVSS VL: EIVMTQSPATLSLSPGERATLSCRASQSVSSTYLSWYQQKPGQAPRLLIFGASTRATGIPARFSGSGSGTDFTLTISSLQPEDFAVYYCQQDYNLPPTFGPGTKVDIK | 0.0985 | 15 | 14.6 | 0.0086 | 590000 | 8.6 | 0.97 | – |
| antibody A1 (antibody, V domains shown, Tested as full-length mAb made in CHO cells; also called L1H1) VH: QVQLVQSGAEVKKPGASVKVSCKASGFTFTSYDINWVRQATGQGLEWMGWMHPNSGITGYAQKFQGRVTMTRNTSISTAYMELSSLSSEDTAVYFCARYYYVSGSYDYWGQGTLVTVSS VL: EIVMTQSPATLSLSPGERATLSCWASQSVSSSYLSWYQQKPGQAPRLLIYGASTRATGIPARFSGSGSGTDFTLTISSLQPEDFAVYYCQQDYNLPYTFGQGTKLEIK | 0.0415 | 0.13 | 0.13 | 0.00013 | 1e+06 | 0.31 | 0.4 | – |
| antibody A7 (antibody, V domains shown, Tested as full-length mAb made in CHO cells; also called L7H7) VH: QVQLQESGPGLVKPSETLSLTCTVSGGSISSYYWSWIRQPPGKGLEWIGYIFYSGSTNYNPSLKSRVTISVDTSKNQFSLKLSSVTAADTAVYFCARDNWHDGGVDYWGQGTLVTVSS VL: EIVMTQSPTTLSLSPGERATLSCRASQSVSSSYLSWYQQKPGQAPRLLIYGASTRATGIPARFSGSGSGTDFTLTISSLQPEDFAVYYCQQDYNLRTFGQGTKVEIK | 0.151 | 17 | 16.7 | 0.0095 | 570000 | 23 | 1.88 | – |

Continued, values first:

| Promega assay antagonist (EC50, ug/mL) [1] [µg/mL] | Kd [2] [nM] | Kd [3] [nM] | koff [3] [s⁻¹] | kon [3] [M⁻¹ s⁻¹] | Kd (cyno PD-L1) [nM] | EC50 (rhPD-L1-Fc) [µg/mL] | binding result [4] | Binder |
| --- | --- | --- | --- | --- | --- | --- | --- | --- |
| – | – | – | – | – | 38.5 | – | binds | antibody A22 (antibody, V domains shown, Tested as full-length mAb made in CHO cells; also called L22H22) VH: QVQLVQSGAEVKKPGASVKVSCKASGYTFTSYGISWVRQAPGQGLEWMGWISAYNGNTNYAQKLQGRVTMTTDTSTSTAYMELRSLRSDDTAVYYCARGFYYGSWYFDYWGQGTLVTVSS VL: DIQMTQSPSSLSASVGDRVTITCRASQGISSWLAWYQQKPEKAPKSLIYAASSLQSGVPSRFSGSGSGTDFTLTISSLQPEDFATYYCQQYNSYPPTVGGGTKVEIK |
| 0.158 | 66 | 64.7 | 0.011 | 170000 | 17.7 | 0.56 | – | antibody A11 (antibody, V domains shown, Tested as full-length mAb made in CHO cells; also called L11H11) VH: QVQLVESGGGVVQPGRSLRLSCAASGFTFSSYGIHWVRQAPGKGLEWVAVIWSDGSNKFYADSVKGRFTISRDNSKNTLFLQMSSLRAEDTAVYYCARDIAAAIDYWGQGTLVTVSS VL: AIQMTQSPSSLSASVGDRVTITCRASQGIRNDLGWYQQKPGKAPKLLIYAASSLQSGVPSRFSGSGSGTDFTLTISSLQPEDFATYYCLQDYNYPYTFGQGTKLEIK |
| 0.621 | 22 | 22.8 | 0.013 | 570000 | 18.9 | 0.46 | – | antibody A8 (antibody, V domains shown, Tested as full-length mAb made in CHO cells; also called L8H8) VH: QVQLVQSGAEVKKPGASVKVSCKASGYTFTSYGISWVRQAPGQGLEWMGWISAYNGSTNYAQKLQGRVTMTTDTSTSTAYMELRSLRSDDTAVFYCARDDRIAVADYYYYFGMDVWGQGTTVTVSS VL: DIQMTQSPSSLSASVGDRVTITCRASQGIRNDLGWYQQKPGKAPKRLIYAASSLQSGVPSRFSGSGSGTEFTLTISSLQPEDFATYYCLQHNSYPYTFGQGTKLEIK |
| – | 246 | 250 | 0.035 | 140000 | 532 | 0.64 | – | antibody A16 (antibody, V domains shown, Tested as full-length mAb made in CHO cells; also called L16H16) VH: QVQLVESGGGVVQPGRSLRLSCAASGFTFSSYGMHWVRQAPGKGLEWVAVIWYDGSNKYYADSVKGRFTISRDNSNDTLFLQMNSLRAEDTAVYYCARDFDWFGMDVWGQGTTVTVSS VL: DIQMTQSPSSLSASVGDRVTITCRASQGIRNDLGWYQQKPGKAPKRLIYAASSLQSGVPSRFSGSGSGTEFTLTISSLQPEDFATYYCLQHNSYPRTFGQGTKVEIK |
| 0.28 | 26 | 26.2 | 0.0055 | 210000 | 20.9 | 1.49 | – | antibody A9 (antibody, V domains shown, Tested as full-length mAb made in CHO cells; also called L9H9) VH: QVQLVESGGGVVQPGRSLRLSCAASGFTFSSYGMHWVRQAPGKGLEWVAVIWFDGNNKYYADSVKGRFTISRDNSKNTLYLQMNSLRAEDTAVYYCARDVTTVPFDYWGQGTLVTVSS VL: EIVMTQSPATLSLSPGERATLSCRASQSVSSSYLSWYQQKPGQAPRLLMYGASTRATGIPARFSGSGSGTDFTLTISSLQPEDFAVYYCQQDYNLPYTFGQGTKLEIK |
| 1.23 | 148 | 146 | 0.038 | 260000 | 57.7 | 0.6 | – | antibody A14 (antibody, V domains shown, Tested as full-length mAb made in CHO cells; also called L14H14) VH: QVQLVESGGGVVQPGRSLRLSCAASGFTFSSYGMHWVRQAPGKGLEWVAVIWYDGSVKYYADSVKGRFTISRDNSKNTLYLQMNSLRAEDTAVYYCARDRTGVPFDYWGQGTLVTVSS VL: EIVMTQSPATLSLSPGERATLSCRASQSVSSSYLSWYQQKPGQAPRLLIYGASTRATGIPARFSGSGSGTDFTLTISSLQPEDFAVYYCQQDYNLPHTFGQGTKLEIK |
| 1.12 | 124 | 126 | 0.039 | 310000 | 101 | 0.6 | – | antibody A13 (antibody, V domains shown, Tested as full-length mAb made in CHO cells; also called L13H13) VH: QVQLQESGPGLVKPSETLSLTCTVSGGSISSYYWSWIRQPPGKGLEWIGYIHYSGSTKYNPSLKSRVTISLDTSKNQFSLKLSSVTAADTAVYYCARDRGIGAFDIWGQGTMVTVSS VL: EIVMTQSPATLSLSPGERATLSCRASQSVSSSYLSWYQQKPGQAPRLLIYGASTRATGIPARFSGSGSGTDFTLTISSLQPEDFAVYYCQQDYNLITFGQGTRLEIK |
